Results published in the supplement of paper PMC7877785.
± gives the uncertainty stated by the source.

Experiment: self-splicing fitness, log relative to wild type (ln ratio); higher = more splicing; Tetrahymena group I intron in knt gene, E. coli kanamycin selection, DiMSum; sequences stand for … in CUCUCU…GGAGGGAAAAGUUAUCAGGCAUGCACCUGGUAGCUAGUCUUUAAACCAAUAGAUUGCAUCGGUUUAAAAGGCAAGACCGUCAAAUUGCGGGAAAGGGGUCAACAGCCGUUCAGUACCAAGUCUCAGGGGAAACUUUGAGAUGGCCUUGCAAAGGGUAUGGUAAUAAGCUGACGGACAUGGUCCUAACCACGCAGCCAAGUCCUAAGUCAACAGAUCUUCUGUUGAUAUGGAUGCAGUUCACAGACUAAAUGUCGGUCGGGGAAGAUGUAUUCUUCUCAUAAGAUAUAGUCGGACCUCUCCUUAAUGGGAGCUAGCGGAUGAAGUGAUGCAACACUGGAGCCGCUGGGAACUAAUUUGUAUGCGAAAGUAUAUUGAUUAGUUUUGGAGUACUCGUGGUCG
Procedure, shortened: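 Six replicate transformations of E. coli BL21(DE3) with a pET-22b(+) library were grown overnight at 37°C or 30°C. The library randomised all eight P1ex-region intron nucleotides, the intron lying in the knt kanamycin-resistance gene, and plates were LB agar with or without 25 μg/mL kanamycin plus 100 μg/mL carbenicillin, 50 μM IPTG and 0.2% rhamnose. Pooled colonies were amplicon-sequenced on an Illumina HiSeq 2500, and fitness is the DiMSum error-weighted combination of wild-type-normalised replicate fold changes, kanamycin versus none.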

Sequence	self-splicing fitness (ln) (30 °C)	self-splicing fitness (ln) (37 °C)
AUCCAGCAAUAUUACGGUCC	-1.39 ± 0.13	-0.176 ± 0.21
GGUUAGCAAUAUUACGCAUG	-1.89 ± 0.17	-1.57 ± 0.14
CAGUAGCAAUAUUACGCAUU	-1.49 ± 0.18	-2.5 ± 0.22
AACCAGCAAUAUUACGGGAA	-1.76 ± 0.073	-1.01 ± 0.065
UUUAAGCAAUAUUACGUAUC	–	-1.84 ± 0.33
ACUUAGCAAUAUUACGCUCA	-0.842 ± 0.13	-0.196 ± 0.15
UCGUAGCAAUAUUACGUUUU	-2.58 ± 0.17	-3.25 ± 0.23
AUAUAGCAAUAUUACGAGAC	-3.02 ± 0.39	-1.61 ± 0.49
AAACAGCAAUAUUACGAUUG	-3.35 ± 0.12	-1.76 ± 0.12
UUAUAGCAAUAUUACGCAGA	-2.06 ± 0.14	-1.25 ± 0.099
UAGCAGCAAUAUUACGCUGA	-2.19 ± 0.15	-1.71 ± 0.18
AUGCAGCAAUAUUACGACGC	-1.48 ± 0.11	-1.32 ± 0.12
AGGCAGCAAUAUUACGUAAU	-1.94 ± 0.088	-0.867 ± 0.088
UCGUAGCAAUAUUACGGCCA	-0.72 ± 0.13	-0.85 ± 0.16
CCCUAGCAAUAUUACGUGUA	-3.49 ± 0.25	-2.94 ± 0.21
GGGAAGCAAUAUUACGCGUG	-1.02 ± 0.076	-0.978 ± 0.096
CUCCAGCAAUAUUACGUUGC	-3.98 ± 0.27	-1.77 ± 0.15
GUAUAGCAAUAUUACGAGUU	-3.29 ± 0.19	-1.17 ± 0.14
ACGCAGCAAUAUUACGCUCU	-0.517 ± 0.067	0.303 ± 0.076
AUGCAGCAAUAUUACGAGCU	-0.624 ± 0.073	-0.565 ± 0.088
CUUGAGCAAUAUUACGGGAA	-3.79 ± 0.42	-2.73 ± 0.2
AUGCAGCAAUAUUACGGCCA	-0.753 ± 0.14	0.267 ± 0.14
CGUCAGCAAUAUUACGAGAA	-2.97 ± 0.38	-2.09 ± 0.29
CUGCAGCAAUAUUACGACGA	-1.85 ± 0.18	-1.16 ± 0.17
GCUAAGCAAUAUUACGUUAA	-2.72 ± 0.16	-1.74 ± 0.18
CACUAGCAAUAUUACGUGCA	-2.44 ± 0.17	-1.99 ± 0.23

Sequence	self-splicing fitness (ln) (30 °C)	self-splicing fitness (ln) (37 °C)
UGGAAGCAAUAUUACGGAUA	-0.862 ± 0.084	-1.04 ± 0.088
GUCGAGCAAUAUUACGCUCA	-0.929 ± 0.21	-0.388 ± 0.22
CCGCAGCAAUAUUACGAGUU	-4.11 ± 0.22	-2.56 ± 0.21
UUUCAGCAAUAUUACGCACU	-0.429 ± 0.077	-0.09 ± 0.092
AGGUAGCAAUAUUACGCGAA	-1.61 ± 0.017	-0.832 ± 0.035
CGACAGCAAUAUUACGUUUU	-3.62 ± 0.15	-1.54 ± 0.11
UUUUAGCAAUAUUACGGAGC	-2.24 ± 0.38	-2.37 ± 0.49
GGUAAGCAAUAUUACGCGGC	-2.84 ± 0.19	-1.29 ± 0.2
GUUUAGCAAUAUUACGAGUU	-4.25 ± 0.29	-2.3 ± 0.14
CUGCAGCAAUAUUACGACUG	-2.56 ± 0.16	-1.74 ± 0.2
AUGCAGCAAUAUUACGCUGG	-2.5 ± 0.17	-2.68 ± 0.25
CUGAAGCAAUAUUACGGCAA	-3.04 ± 0.2	-1.21 ± 0.2
UCCGAGCAAUAUUACGCGAU	–	-2.3 ± 0.35
CGAGAGCAAUAUUACGGACU	-1.89 ± 0.29	-2.14 ± 0.38
ACGCAGCAAUAUUACGCCAU	-2.86 ± 0.17	-2.05 ± 0.17
CCCGAGCAAUAUUACGACGU	-2.47 ± 0.15	-0.954 ± 0.13
UACCAGCAAUAUUACGCGUC	-2.06 ± 0.11	-1.13 ± 0.1
GUAAAGCAAUAUUACGACGU	0.341 ± 0.11	0.169 ± 0.12
AAGAAGCAAUAUUACGCUAA	-1.69 ± 0.14	-0.682 ± 0.15
GUACAGCAAUAUUACGGACG	-3.05 ± 0.14	-0.547 ± 0.12
CGUUAGCAAUAUUACGAAUU	–	-2.39 ± 0.33
AAUGAGCAAUAUUACGUGAU	-3.8 ± 0.29	-0.708 ± 0.2
UACAAGCAAUAUUACGCACC	-1.62 ± 0.14	-1.42 ± 0.23
UAACAGCAAUAUUACGAUGG	-1.82 ± 0.087	-0.665 ± 0.1
GUUGAGCAAUAUUACGAGGA	-2.48 ± 0.45	–
UACCAGCAAUAUUACGGGGC	-4.11 ± 0.29	-2.72 ± 0.2

Sequence	self-splicing fitness (ln) (30 °C)	self-splicing fitness (ln) (37 °C)
AGUGAGCAAUAUUACGGUAU	-3.9 ± 0.23	-2.31 ± 0.24
CGAAAGCAAUAUUACGGGAC	–	-2.59 ± 0.32
AGAUAGCAAUAUUACGGCUC	-1.14 ± 0.32	-0.656 ± 0.37
GCGCAGCAAUAUUACGUACG	-3.47 ± 0.2	-1.09 ± 0.16
GCAUAGCAAUAUUACGGAUA	-1.81 ± 0.22	-0.643 ± 0.18
UGGUAGCAAUAUUACGUUCA	-0.227 ± 0.11	-0.354 ± 0.14
GACGAGCAAUAUUACGUAAC	-3.16 ± 0.23	-0.414 ± 0.18
GCUUAGCAAUAUUACGUGCU	-2.78 ± 0.19	-1.41 ± 0.18
CGACAGCAAUAUUACGGUAA	-1.81 ± 0.13	-1.44 ± 0.11
AACCAGCAAUAUUACGGCCC	0.0145 ± 0.12	0.0337 ± 0.099
AACUAGCAAUAUUACGUAUA	-2.05 ± 0.11	-0.938 ± 0.12
AAGAAGCAAUAUUACGCACC	-1.11 ± 0.12	-0.644 ± 0.15
GGCCAGCAAUAUUACGUUUG	-3.15 ± 0.14	-2.4 ± 0.18
AGCGAGCAAUAUUACGCCGG	-3.03 ± 0.27	-2.44 ± 0.5
GCUAAGCAAUAUUACGCAUU	-0.91 ± 0.065	-0.163 ± 0.084
UGCUAGCAAUAUUACGGUGC	-3.92 ± 0.27	-2.38 ± 0.26
UCGUAGCAAUAUUACGAAGU	-3.58 ± 0.47	-3.06 ± 0.35
CAUGAGCAAUAUUACGAAAG	-1.36 ± 0.11	-1.18 ± 0.14
CUCCAGCAAUAUUACGAAAA	-2.78 ± 0.28	-1.89 ± 0.3
GAGAAGCAAUAUUACGUCGC	-2.17 ± 0.42	–
GCCUAGCAAUAUUACGGCCG	-3.44 ± 0.26	-2.37 ± 0.32
ACGCAGCAAUAUUACGCAAA	-2.51 ± 0.13	-1.77 ± 0.14
GUCGAGCAAUAUUACGGCUU	–	-0.65 ± 0.49
ACGGAGCAAUAUUACGACAA	–	-1.73 ± 0.45
GGAUAGCAAUAUUACGCGAU	-3.65 ± 0.3	-2.91 ± 0.47
ACCGAGCAAUAUUACGCGCA	-2.06 ± 0.1	-0.82 ± 0.078
